Assay: soluble on expression in E. coli; label from the status in PepcDB or PDB records

Sequence | soluble on expression in E. coli
MEFKVEDDRISLYADSKRVSWVLYRKHSGEIELLATFTAKGEEGKGYASKVVGEALNYARGFEKIKVSCPYIKSWIEKHGFDRDVEYTKLLEFKEAVEKFNRFHSPEAVAEFMKEEGEVVYVRFTGPFCVSCGVYDYFEDLTQDAEVLDYEEVEDGFIVRYRLL | not soluble
MILVNRETRVLVQGITGREGQFHTKQMLSYGTKIVAGVTPGKGGMEVLGVPVYDTVKEAVAHHEVDASIIFVPAPAAADAALEAAHAGIPLIVLITEGIPTLDMVRAVEEIKALGSRLIGGNCPGIISAEETKIGIMPGHVFKRGRVGIISRSGTLTYEAAAALSQAGLGTTTTVGIGGDPVIGTTFKDLLPLFNEDPETEAVVLIGEIGGFDEEEAAAWVKDHMKKPVVGFIGGRSAPKGKRMGHAGAIIMGNVGTPESKLRAFAEAGIPVADTIDEIVELVKKALG | soluble
MTEDEWEKQSSFVPVNADPLSPYTEKVKTLAAHRLDFHIRENLRLGVGELTMIGGKYPDLFAVSPFSIWHNNYNEGYTNSMASFDFSWVPKKGFEVHGEFVLDDLVGTTENESKPTAYAFNVGVRRALSTGSLKGVLGVEYALATKFVYNTFLPYLKFNNRIVYLTNLPSSRTIVDYPVGFAFGPDAKLLNVSFDLFKENVSLETDFFYLVKGPNTLYTEYPTAEEGETKTIFGASLRGKIGHVSFSLLFSGSEFLAGLGIEFGF | not soluble
MTEKSIDLSVDIAGLRLSNPVIAASGTFGFGREFVDYVDLNKIGGISVKGLTLEKRQGNRPPRIAETPAGILNSVGLQNPGVRAFIENEIPFLRKYNTKIIANIAGNTIEDYCKMAELLSDADIDAIELNVSCPNVKKGCVAFGNSPAGISEITSKVKKYCKKPLIVKLTPNVTDIKEIAVAAEAAGADALSLINTILGMAIDIHRKRPILANNVGGLSGPAVKPIAVRMVYEVCSVVKIPVIGMGGISSGEDAVEFMLAGASAVMVGTANFINPAACIDVVEGIKNYLKMYNHGSVYEIIGKLQLN | not soluble
MAHHHHHHMGRNNKMRSKPSDNVAWYDKGPVEWLPRPVRLTYDQLDQLRDWMMRETIAGRTEEFNKIRHLHREWSQHPLMPVLGDVEPKFPLNLYKQNHRAKRRFLVRWHKANSPTYWMWMPRGPAVATPLHRSSPSQFPEHWKSLARTSSSSSSSGSSSAAP | soluble
MGSDKIHHHHHHMRINHNISALNAWRNISQTQYSMSKTLERLSSGLRINRAGDDAAGLAISEKMRGQIKGLNMAIKNAQDAISLIQTAEGALTEVHSILQRMRELAVQAASDTNTDVDREQIQKEIDQLREEIDRIARTTEFNTKKLLDGKLESFRSQVDAKVVTGGNINVQLGSVSSAAVEGTYVIEVGQFNGAETSELDVKITLFTAGGYSTTVVTITVGSATVGNINFTWDTDVLSINDFGGALPKNEVVDSAVVRVEAIYTSASQLIFQIGANEGHNMVAGIDDMSAAALGLTTVSLDVTTQDAAERAIMVVDAAIHRVSTARAALGAVQNRLEHTISNLGVAAENLTAAESRIRDADMAKEMMEFTKQQILLQSSMAMLAQSNTLPQNVLQLMR | not soluble
MNIAKIVREAREQSRLTTLDFATGIFDEFIQLHGDRSFRDDGAVVGGIGWLGDQAVTVVGIQKGKSLQDNLKRNFGQPHPEGYRKALRLMKQAEKFGRPVVTFINTAGAYPGVGAEERGQGEAIARNLMEMSDLKVPIIAIIIGEGGSGGALALAVADRVWMLENSIYAILSPEGFASILWKDGTRAMEAAELMKITSHELLEMDVVDKVISEIGLSSKELIKSVKKELQTELARLSQKPLEELLEERYQRFRKY | not soluble
MTMYQTINEWVDYIDKGCSVLHLDFNVFKKELSLDIKVFEDEGEYTHKISFQNVASAYYSADVGDMRLEKIDPEEYNWQVFEMSYHPEGIGNLSNSIIPEYQSNANFLIDMNRMLIAIEAETVRFDDQSFYAYQLNTKLEHHHHHH | soluble
MSERLYYFVIVGRDDRVLYDLLYPASLSELDWRTSSELSSPAERGDFEPHHFIPSIQVLLQFVAYSALDHIEEKYWLTSARSLKHIFRFRDWSASVQLTPNAATRFVLVHGASDDASRNVRAFLHAVYEAYVPHVVCNPFQEEDAPITSKRFHEVAKNLAKRYFSG | not soluble
MSLKIYGVYRSRASRPLWLLAELDLPFEHVPVIQANRVAHPHGPEAPLNTASAAYLAVNPLGQIPCLEEEGLILTESLAITLHIARTQGGQLGPRSEPEDALMVSWSLFAATAVEPPALEIQLIQRSGGGTSPEGQAAIAIAAERLRRPLARLERHFAAEDYLVGGRFTVADLNLAETLRYGQAHPALLEPFPAVAAWLDRCQSRPAFRLMMERRAAEGHHHHHH | soluble
MGSDKIHHHHHHHPCARLSVRMSSTGIDRKGVLANRVAVVTGSTSGIGFAIARRLARDGAHVVISSRKQQNVDRAMAKLQGEGLSVAGIVCHVGKAEDREQLVAKALEHCGGVDFLVCSAGVNPLVGSTLGTSEQIWDKILSVNVKSPALLLSQLLPYMENRRGAVILVSSIAAYNPVVALGVYNVSKTALLGLTRTLALELAPKDIRVNCVVPGIIKTDFSKVFHGNESLWKNFKEHHQLQRIGESEDCAGIVSFLCSPDASYVNGENI | not soluble
MGHHHHHHSHMQWSKEEEAAARKKVKENSAVRVLLEEQVKYEREASKYWDTFYKIHKNKFFKDRNWLLREFPEILPVDQKPEEKARESSWDHVKTSATNRFSRMHCPTVPDEKNHYEKSSGSSEGQSKTESDFSNLDSEKHKKGPMETGLFPGSNATFRILEVGCGAGNSVFPILNTLENSPESFLYCCDFASGAVELVKSHSSYRATQCFAFVHDVCDDGLPYPFPDGILDVILLVFVLSSIHPDRTLFI | not soluble
MNLDDKSLFLDAMEDVQPLKRATDVHWHPTRNQRAPQRIDTLQLDNFLTTGFLDIIPLSQPLEFRREGLQHGVLDKLRSGKYPQQASLNLLRQPVEECRKMVFSFIQQALADGLRNVLIIHGKGRDDKSHANIVRSYVARWLTEFDDVQAYCTALPHHGGSGACYVALRKTAQAKQENWERHAKRSR | soluble
SIEFSTAITRQIVLDTETTGMNQIGAHYEGHKIIEIGAVEVVNRRLTGNNFHVYLKPDRLVDPEAFGVHGIADEFLLDKPTFAEVADEFMDYIRGAELVIHNAAFDIGFMDYEFSLLKRDIPKTNTFCKVTDSLAVARKMFPGKRNSLDALCARYEIDNSKRTLHGALLDAQILAEVYLAMTGGQTSMATRESG | soluble
MALKDLFSGFFVVEEEDDELEAPPEENEQQERQQPKQQAQSQNQFTEQPRNVNSERPRSIQSVPKKQSTRLQQSSGERKYQMNNTTSKNNARNVVNMNNQEQENYDFTQESSKMCLFEPRVFSDTQDIADELKNRRATLVNLQRIDKVSAKRIIDFLSGTVYAIGGDIQRVGSDIFLCTPDNVEVAGSITDQIENMEYQGELEHHHHHH | not soluble
MPLKPGANPYKILHLEKGCTDKEIQKAYRAQCLKWHPDKNLDNKEEAERRFIEAKEAFDFLYDKEKREEYDNREERIRMAQEHHSKRMAEADGKRKKLIEDLEKREKEFSNGGKRSADGSTPMTAAQQAKKKKTDQRNFKEEIEAIRRQLEKEVNEEVKQKATLMKTEREKHQKSQEKLTPRLLLKWKTSEGLDYSEDDIRKLFSTFGIISHISSAIEKKDRRKRILEFESGANAWGAELETGNAPMPEITCEWLQPPVETVKKASDEPVKSTNTGANNLEHMSLDDLEAQIMGGF | not soluble
MEHEIGNISIARIRQMNPSLKGINNDFVMDRSEHYIPENMNPIFKYPLRLDGIIISIREKGSAKVNINLREYDIEQNDLIICAPGDILQSMLSPGIHLSQMFLISSDFLKEMYINLNSFMPFFISLKENPKFHLMEEEVQELKSFYELIEETVSRNDNFRTEIVRRLMGAYLYKIGSILHRKQPEFLSENPKSLKREEVLFNQFINLLTEHHRKERRVDFYAEQLFLSPKHFSTVVKKVSGKTAGEWIDEYVILEAKALLKYSVMSIQEVAYFMNFPNPSFFGKYFKHHTGLSPSEYKMQ | not soluble
MRDYATTAAGFDLQRTAAATLSGTLQALNACVECCDRHALPGRIALFWEGKDGSRASYTFSELKALSGRFANFLQAQGVRPGDCVAGLLPRTPELLVTILGAWRLGAVYQPLFTAFGPKAIEHRVATAGSKVLVTDAANRDKLDELADPPLAVTVGGPKGQGIRRGDFSFWAELERYPAEFEPVPRSGEDPFLMMFTSGTTGLAKPVPVPLKAILAFVGYLREAVDLRPEDAFWNLADPGWAYGLYYAVAGPLAMGHPTTFYEGPFSVESTCRIIRDYGITNLAGSPTAYRLLMAAGAAAETALKGRLRAVSSAGEPLTPEVIRWFADRLGTTIHDHYGQTELGMVLCNHHALAHPVRVGAAGFACPGHRVVVLDDDLNELPPGQPGILALDRRRSPLMWFPGYQGLETAAFVGDYYLSGDTVELNEDGSISFVGRADDVITTSGYRVGPFDVESALIEHPAVMEAAVIGKPDPERTELVKAFVVLCAGHRPTPELADALQRYVRQRLSAHAYPREIEFLEELPKTPSGKIQRFLLRNQEIARQREAAPRAAAAN | not soluble
GMSRGHCILAHGFESGPDALKVTALAEVAERLGWTHERPDFTDLDARRDLGQLGDVRGRLQRLLEIARAATEKGPVVLAGSSLGSYIAAQVSLQVPTRALFLMVPPTKMGPLPALDAAAVPISIVHAWHDELIPAADVIAWAQARSARLLLVDDGHRLGAHVQAASRAFAELLQSL | soluble
MAATITDDIVATVLESIEEKSYEDEKEKAGMIKDEANQFFKDQVYDVAADLYSVAIEIHPTAVLYGNRAQAYLKKELYGSALEDADNAIAIDPSYVKGFYRRATANMALGRFKKALTDYQAVVKVCPNDKDARAKFDECSKIVRRQKFEAAISTDHDKKTVAETLDINAMAIEDSYDGPRLEDKITKEFVLQLIKTFKNQQKLHKKYAFKMLLEFYNYVKSLPTMVEITVPTGKKFTICGDVHGQFYDLCNIFEINGYPSETNPYLFNGDFVDRGSFSVETIFTMIGFKLLYPNHFFMSRGNHESDVMNKMYGFEGEVKAKYTQQMCDMFTETFCWLPLCHLINEKIFVCHGGLFKEDGVTLEDIRKTDRNRQPPDEGIMCDLLWSDPQPINGRSPSKRGVGCQFGPDVTSKWCETNGIEYVVRSHEVKPEGYEMHHNGQCFTVFSAPNYCDQMNNKGAFITITGDNLTPRFTPFDAVPHPKLPPMAYANSLFGFN | not soluble
MSLDNGEAAIIIGEFYKRNDQWKFRALSEGSAYGLSAFGRKIGLEVDDRHPRRPSGGSGGPAGGPRHESATGTAFVVGPAHVMTCAHVIEDMGVFYINSLEGRYKAEAVVIDRRNDIALLRVQGAPPLSAVTFREGQGCEPGDTVAVLGYPLASISGGGLQVTQGGISGLFGLHNDASLFQFTAPIQPGSSGSPLFDNGGAVIGMVTSTVPDGQNMNFAVKSALLMSFLQACRIDEGHHHHHH | not soluble
MKIRILGSGTSTGVPEIGCTCAVCTSKDPRDCRLRTSALVYTDDATILLDCGPDFREQMLRVPFGKIDAVLISHEHYDHVGGLDDLRPFCRFGEVPIYAETYTAERLRSRMPYCFVEHSYPGVPNIPLREIEPNRPFLVNHTEVLPLRVMHGKLPILGYRIGKLGYITDMLTMPDESFEQLQGIEVLVMNALRIAPHNTHQSLSEALEAVKRIGAKETWLIHMSHHIGLQADVEKQLPPHVHFAFDGLELECLEHHHHHH | not soluble
RVESLMTHRSDIIALDLDDPVDENLKKMIASGRSNFPVYERDLDDVIGIVSVKDVLAKLVESGKVDIRASVTKPLFAPEAITILKLLESFKETGMHIALITDEYGSVQGIITLHDILEAIVGDVRSLGEPEEEQI | not soluble

From the DeepSol protein solubility set
